From patent US20260116958A1 (University of California, published 2026)
Where a chain is given by its changes, count along the chain named.

T1: active BoNT/G holotoxin (Clostridium botulinum, UniProt Q60393 2-1297)
T1 sequence: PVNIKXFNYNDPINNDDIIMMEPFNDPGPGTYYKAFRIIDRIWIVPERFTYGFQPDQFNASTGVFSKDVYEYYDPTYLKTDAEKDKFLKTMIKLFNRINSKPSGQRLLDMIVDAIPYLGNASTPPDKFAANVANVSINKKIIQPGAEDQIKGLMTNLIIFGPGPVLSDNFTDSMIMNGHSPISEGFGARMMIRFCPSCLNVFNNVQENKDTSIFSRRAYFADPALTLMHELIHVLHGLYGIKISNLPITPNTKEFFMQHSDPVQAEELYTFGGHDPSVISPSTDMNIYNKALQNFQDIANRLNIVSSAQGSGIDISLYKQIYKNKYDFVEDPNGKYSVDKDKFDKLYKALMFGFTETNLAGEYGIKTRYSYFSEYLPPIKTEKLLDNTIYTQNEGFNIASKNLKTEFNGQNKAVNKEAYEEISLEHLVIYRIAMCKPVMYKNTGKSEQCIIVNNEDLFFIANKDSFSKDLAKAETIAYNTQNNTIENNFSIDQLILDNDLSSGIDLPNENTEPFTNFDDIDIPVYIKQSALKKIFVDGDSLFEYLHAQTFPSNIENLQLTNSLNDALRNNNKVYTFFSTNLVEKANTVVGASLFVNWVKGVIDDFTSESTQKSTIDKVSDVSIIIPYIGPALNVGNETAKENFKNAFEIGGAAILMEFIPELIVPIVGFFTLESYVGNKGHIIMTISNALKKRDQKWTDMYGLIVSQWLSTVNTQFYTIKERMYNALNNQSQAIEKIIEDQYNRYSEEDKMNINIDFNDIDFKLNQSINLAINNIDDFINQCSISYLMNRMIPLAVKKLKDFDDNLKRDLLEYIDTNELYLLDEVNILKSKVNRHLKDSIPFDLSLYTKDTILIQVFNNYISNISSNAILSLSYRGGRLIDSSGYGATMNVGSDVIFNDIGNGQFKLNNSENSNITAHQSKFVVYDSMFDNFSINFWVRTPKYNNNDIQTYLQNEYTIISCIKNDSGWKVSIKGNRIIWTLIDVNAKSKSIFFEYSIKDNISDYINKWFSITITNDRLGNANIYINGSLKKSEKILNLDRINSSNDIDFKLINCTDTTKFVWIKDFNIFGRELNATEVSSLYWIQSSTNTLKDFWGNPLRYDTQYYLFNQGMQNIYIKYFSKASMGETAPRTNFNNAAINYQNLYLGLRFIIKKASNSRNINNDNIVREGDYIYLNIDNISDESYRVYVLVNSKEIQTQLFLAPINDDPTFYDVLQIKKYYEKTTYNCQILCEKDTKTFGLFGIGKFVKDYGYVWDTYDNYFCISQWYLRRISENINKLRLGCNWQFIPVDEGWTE

T2: inactive BoNT/G (BoNT/Gi) (Clostridium botulinum, UniProt Q60393 1-1297)
T2 sequence: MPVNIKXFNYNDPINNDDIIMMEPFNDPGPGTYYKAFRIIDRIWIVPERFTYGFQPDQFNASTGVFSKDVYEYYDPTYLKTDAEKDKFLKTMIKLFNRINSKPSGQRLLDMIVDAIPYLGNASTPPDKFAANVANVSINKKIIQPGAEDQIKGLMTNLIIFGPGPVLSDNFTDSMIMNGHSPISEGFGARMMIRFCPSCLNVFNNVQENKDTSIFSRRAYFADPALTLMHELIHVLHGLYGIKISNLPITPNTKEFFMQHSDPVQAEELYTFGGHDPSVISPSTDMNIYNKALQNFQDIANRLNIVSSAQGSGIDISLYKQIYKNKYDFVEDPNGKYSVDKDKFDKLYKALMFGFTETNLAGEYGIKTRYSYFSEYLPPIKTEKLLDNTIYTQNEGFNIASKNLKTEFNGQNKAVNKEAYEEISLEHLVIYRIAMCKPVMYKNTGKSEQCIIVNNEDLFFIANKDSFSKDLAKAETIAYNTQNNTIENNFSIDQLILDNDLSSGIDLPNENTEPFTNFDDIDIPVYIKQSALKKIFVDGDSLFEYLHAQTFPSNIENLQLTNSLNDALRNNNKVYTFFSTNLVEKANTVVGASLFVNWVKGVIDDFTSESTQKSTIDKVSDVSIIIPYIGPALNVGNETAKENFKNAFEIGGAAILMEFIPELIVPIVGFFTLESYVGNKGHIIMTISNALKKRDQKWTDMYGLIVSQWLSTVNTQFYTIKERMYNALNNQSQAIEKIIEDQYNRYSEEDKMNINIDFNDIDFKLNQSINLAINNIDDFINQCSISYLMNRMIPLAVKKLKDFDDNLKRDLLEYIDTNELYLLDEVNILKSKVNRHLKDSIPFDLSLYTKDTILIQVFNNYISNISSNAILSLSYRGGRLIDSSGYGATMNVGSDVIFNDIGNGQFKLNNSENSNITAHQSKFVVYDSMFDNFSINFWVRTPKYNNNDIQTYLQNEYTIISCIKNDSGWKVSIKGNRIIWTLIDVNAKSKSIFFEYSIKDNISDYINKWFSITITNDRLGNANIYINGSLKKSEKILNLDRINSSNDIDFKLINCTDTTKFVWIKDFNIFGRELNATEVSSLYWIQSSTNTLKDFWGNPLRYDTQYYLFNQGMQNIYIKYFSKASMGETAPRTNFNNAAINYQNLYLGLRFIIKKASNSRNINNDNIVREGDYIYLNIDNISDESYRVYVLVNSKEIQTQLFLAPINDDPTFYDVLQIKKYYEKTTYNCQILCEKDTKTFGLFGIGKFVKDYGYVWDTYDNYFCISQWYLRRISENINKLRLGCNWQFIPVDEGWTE

B1: Hu6G9.1 IgG (antibody, V domains shown)
VH: QVQLVQSGAEVKKPGASVKMSCKASGYTFTSYWMHWVRQAPGQGLEWVGYINPSTGYTEYNQKFKDRATLTADKSTSTAYMELRSLRSDDTAVYYCARGGNYVDYWGQGTTLTVSS
VL: DIQMTQSPSTLSASVGERVTITCRASHGISSWLAWYQQKPGKAPKRLIYAVSTLQTGVPSRFSDSGSGTDLTLTINSLQPEDFATYYCQDLNSYPLSFGGGTKVEIKR
B2: 6G9 IgG (antibody, V domains shown)
VH: EVQLQQSGDDLVKPGASVKMSCKASGYTFTSYWMHWVKQRPGQGLEWIGYINPSTGYTEYNQKFKDKATLTADKSSSTAYMQLSSLTSEDSAVYYCARGGNYVDYWGQGTTLTVSS
VL: EIVLTQSPAIMSASPGEKVTISCSASSSVSYMYWYQQKPGSSPKPWIYRTSNLASGVPARFSGSGSGTSYSLTISSMEAEDAATYYCQQWSSNPYTFGGGTKLEIKR
B3: Hu6G11.1 IgG (antibody, V domains shown)
VH: QVQLVQSGAEVAKPGASVKMSCKASGYTFTSYWMHWVRQAPGQGLEWIGYINPSTGYTEYNQKFKDRATLTADKSKSTAYMELSSLRSEDTAVYYCARGYFSFAYWGQGTLVTVSS
VL: DIVMTQSPSSLSASVRDRVTITCQASHDIKNFLNWFQQKPGKAPKLLVYDASYLQVGVPSRFSASGYGTEFTLTISSLQPEDFATYYCQQANSFPRTFGQGTKVEIKR
B4: Hu6G11.1 scFv (scFv, V domains shown)
VH: B3 VH
VL: B3 VL
B5: Hu6G11.2 scFv (scFv, V domains shown)
VH: B3 VH
VL: B3 VL with Y53H
B6: Hu6G11.3 scFv (scFv, V domains shown)
VH: B3 VH with K76T
VL: EIVLTQSPSTLSASIGDRVTITCRASEGIYHWLAWYQQKPGKAPKLLIYKASSLASGAPSRFSGSGSGTDFSLTISSLQPEDSATYFCQQAHSFPPTFGGGTKVDIKR
B7: Hu6G11.2 IgG (antibody, V domains shown)
VH: B3 VH
VL: B3 VL with Y53H
B8: hu6G11 IgG (antibody, V domains shown)
VH: B3 VH with K76T
VL: B3 VL with Y53N
B9: hu6G9B10 scFv (scFv)
scFv: QVQLVQSGAEVKKPGASVKMSCKASGYTFTSYWMHWVRQAPGQGLEWIGYINPSTGYTEYNQKFKDRATLTADKSTSTAYMELRSLRSDDTAVYYCARGGNYVDYWGQGTTLTVSSVDLKSGGSTSDSGKPGSGEGSSGSARDIQMTQSPSTLSASVGERVTITCRASQDISSWLAWYQQKPGKAPKRLIYAVSTLQTGVPSRFSGSGSGTDLTLTINSLQPEDFATYYCQDLNSYPLTFGGGTKVEVK
B10: Hu6G10 scFv (scFv, V domains shown)
VH: QVQLVQSGAEVKKPGATVKISCKASGYSFTGYFMHWVRQAPGKGLEWIGRINPYNGDIIYNQNFKDRATLTVDKSTSTAYMELSSLRSEDTAVYYCASLFGLYYFDYWGQGTTLTVSS
VL: DVVMTQSPSSVSASVGDRVTITCRASQRISNHLNWYQQKPGKAPKRLIYAASSLESGVPSRFSGSGSGTEFTLTISSLQPEDFATYFCLQHNSYPYTFGQGTKVEIKR
B11: hu6G6 IgG (antibody, V domains shown)
VH: QVQLVQSGAEVKKPGASVKLSCKASGFNIKDTYMHWVRQAPGQGLEWIGRIDPANGNTKYDPKFQGRATITADTSINTAYLELSRLRSDDTAVYYCASGPNYYGTTWFAYWGQGTTVTVSS
VL: EIVLTQSPSTLSASVGDRVTITCRASHGISNYLAWYQQKPGRAPKLLIYKASTLHIGVPSRFSGSGSGTEFALTISSLQPDDFSTYYCQQYNSYLPHTFGQGTRLEIKR
B12: Hu6G6.2 IgG (antibody, V domains shown)
VH: B11 VH with A54E, D73Y, T74K, T78R
VL: B11 VL
B13: 6G10 IgG (antibody, V domains shown)
VH: EVQLQQSGPELVKPGASVKISCKASGYSFTGYFMHWVKQSHVKSLEWIGRINPYNGDIIYNQNFKDKASLTVDKSSSTAYMELHSLTSEDSAVYYCASLFGLYYFDYWGQGTTLTVSS
VL: EIVLTQSPAIMSASPGEKVTMTCSASSSVSYMHWYQQKSGTSPKRWIYDTSKLASGVPARFSGSGSGTSYSLTISSMEAEDAATYYCQQWSSNPLTFGAGTKLELKR
B14: Hu6G7.1 IgG (antibody, V domains shown)
VH: QVQLVQSGAEVKKPGASVKVSCKASDYSFTDYNIYWVRQTPGQGLEWIGYIDPYNGGTSYNQKFKGRATLTVDKSISTAYMELSRLRSDDTAVYYCALYGYDPDYIDYWGQGTTLTVSS
VL: DIVLTQSPASMAVSPGQRVTITCSASSSVSYLHWFQQKPGQSPKLWIYSTSNLASGVPARFSGSGSGTDYTLTINPMEAEDTATYYCQQRSSYPYTFGQGTKLEIKR
B15: 6G7.1 IgG (antibody, V domains shown)
VH: DVQLQESGPELVKPGASVKVSCKASDYSFTDYNIYWVKQSHGKSLEWIGYIDPYNGGTSYNQKFKGKATLTVDKSSSTAFMYLNSLTSEDSAVYYCALYGYDPDYIDYWGQGTTLTVSS
VL: QIVLTQSPAIMSASPGEKVTITCSASSSVSYLHWFQQKPGTSPKLWIYSTSNLASGVPARFSGSGSGTSYSLTISRMEAEDAATYYCQQRSSYPYTFGGGTKLEIKA

How the values were obtained:
[1] = biological target: T1, active BoNT/G holotoxin; assay: KinExA, IgG
[2] = biological target: T2, inactive BoNT/G (BoNT/Gi); assay: FACS, scFv on yeast
[3] = biological target: inactive BoNT/G (BoNT/Gi) (Clostridium botulinum) (UniProt Q60393); assay: flow cytometry, scFv on yeast

Binder | Kd [1] | other results
B1 | 0.0275 nM | –
B2 | 1.59 nM | –
B3 | 0.101 nM | –
B4 | – | Kd [2]: 0.32 nM
B5 | – | Kd [2]: 0.56 nM
B6 | – | Kd [2]: 0.32 nM
B7 | 0.048 nM | –
B8 | 0.531 nM | –
B9 | – | Kd [3]: 2.35 nM; fold improvement in affinity over hu6G9 WT [3]: 9 fold
B10 | – | Kd [2]: 0.52 nM
B11 | 8.37 nM | –
B12 | 0.0422 nM | –
B13 | 0.33 nM | –
B14 | 1.19 nM | –
B15 | 0.0266 nM | –
